# Numbered stars: 1 amine (or outer) side, 2 acyl side, 3 side chain; on linkers, the order of the positions; unused ones are H or OH. Bridge positions count the residues as written; N and C are the ends. Ends that are not written are not given here. acetyl = acetyl (haloacetyl before ring closure) on the side-chain amine, O=C(C[*:1])[*:2]; COCH2 = acetyl group that carries the bridge
# Target: T1, Recombinant Human FGFR2 alpha (IIIc) Fc Chimera Protein (Homo sapiens, UniProt P21802)
# T1 construct: Fc (chimera); purchased R&D systems 712-FR-050
# T1 sequence (P21802 with tags, fused parts or gaps limits assumed): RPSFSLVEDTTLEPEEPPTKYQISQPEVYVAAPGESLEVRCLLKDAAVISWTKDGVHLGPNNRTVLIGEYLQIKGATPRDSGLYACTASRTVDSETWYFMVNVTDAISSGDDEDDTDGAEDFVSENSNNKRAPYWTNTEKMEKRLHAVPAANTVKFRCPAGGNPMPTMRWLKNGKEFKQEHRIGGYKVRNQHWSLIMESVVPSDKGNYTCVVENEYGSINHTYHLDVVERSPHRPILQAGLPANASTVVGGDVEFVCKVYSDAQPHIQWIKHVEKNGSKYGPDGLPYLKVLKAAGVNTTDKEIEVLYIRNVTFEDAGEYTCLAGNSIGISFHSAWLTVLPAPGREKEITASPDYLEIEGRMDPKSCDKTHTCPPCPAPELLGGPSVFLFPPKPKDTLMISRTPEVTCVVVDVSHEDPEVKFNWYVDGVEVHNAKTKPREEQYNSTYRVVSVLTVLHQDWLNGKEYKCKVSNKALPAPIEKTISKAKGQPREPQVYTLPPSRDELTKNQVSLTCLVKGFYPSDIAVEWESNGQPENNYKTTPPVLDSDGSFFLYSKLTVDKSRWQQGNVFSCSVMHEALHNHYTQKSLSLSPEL
# Test: ELISA binding affinity of enzymatically synthesized peptide to FGFR
# Settings: ELISA luminescence signal at 10 nmol/L peptide, SEQ ID NO: 47 at 10 nmol/L standardized to 1; enzyme synthesis product
# Summary of the method: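 FGFR2 alpha (IIIc) Fc chimera (5 ng/well) was immobilized, and Myc-tagged peptide was bound 3 h at room temperature, then detected with anti-Myc antibody (2 h) and chemiluminescent substrate. Signal was corrected against FGFR-free wells. Score A–D was the luminescence at 10 nmol/L peptide, normalized to cyclic peptide SEQ ID NO: 47.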
row,Evaluation result of binding affinity to FGFR,Substance
1,C (0.1 or more and less than 0.5),419 (DCHTREDWQIHHLYQLLYQLK(COCH2)Y; thioether 2-21 via acetyl) [compound 419]
2,C (0.1 or more and less than 0.5),420 (YCEAQPYYFQLYRLWHRQEK(COCH2)P; thioether 2-20 via acetyl) [compound 420]
3,C (0.1 or more and less than 0.5),421 (VCLDEQQALFHQYYRITRRK(COCH2)V; thioether 2-20 via acetyl) [compound 421]
4,C (0.1 or more and less than 0.5),422 (YCTQEQAFRQLAYYQIFRRSK(COCH2)S; thioether 2-21 via acetyl) [compound 422]
5,C (0.1 or more and less than 0.5),423 (WCFTEGIQSTVQLTYSYLYK(COCH2)L; thioether 2-20 via acetyl) [compound 423]
6,C (0.1 or more and less than 0.5),424 (VCTQPQQDFELIYQYLYQLAK(COCH2)Q; thioether 2-21 via acetyl) [compound 424]
7,C (0.1 or more and less than 0.5),425 (GCGYTQLHYQHLFAWLHARK(COCH2)V; thioether 2-20 via acetyl) [compound 425]
8,C (0.1 or more and less than 0.5),426 (PCDPLNLQQWYTAVYQLWHK(COCH2)R; thioether 2-20 via acetyl) [compound 426]
9,C (0.1 or more and less than 0.5),427 (ECDTADYPQEWIQDVYQYLYK(COCH2)R; thioether 2-21 via acetyl) [compound 427]
10,C (0.1 or more and less than 0.5),428 (ECDQAQQVYALIYRYLYQLQK(COCH2)V; thioether 2-21 via acetyl) [compound 428]
11,C (0.1 or more and less than 0.5),429 (YCHENYLDPEQYQYFHYFK(COCH2); thioether 2-19 via acetyl) [compound 429]
12,A (0.7 or more),430 (CHENYLDPEQYQYFHYFK(COCH2)Y; thioether 1-18 via acetyl) [compound 430]
13,C (0.1 or more and less than 0.5),431 (CHENYLDPEQYQYFHYFK(COCH2); thioether 1-18 via acetyl) [compound 431]
14,C (0.1 or more and less than 0.5),432 (CENYLDPEQYQYFHYFK(COCH2)Y; thioether 1-17 via acetyl) [compound 432]

# Reference: patent US20260008815A1, “CYCLIC PEPTIDE OR SALT THEREOF, AND USES THEREOF” (FUJIFILM Corporation, priority 2023, published 2026)
